Key:
[1] = biological target: T1, DNA polymerase lambda catalytic domain with brooch motif (Homo sapiens, UniProt Q9UGP5 235-575); experiment: X-ray crystallography, 1.8 A; dUMPNPP, Na+ (metal A), Mg2+ (metal B); Crystals only: DNA with protein on ice or RT, then 0.91 mM dUMPNPP; SSB cacodylate pH 6.5/KCl/Mg acetate/PEG 8000 RT; DSB.A tripotassium citrate/PEG 3350 4 C; DSB.B Na sulfate/PEG 3350 RT; DSB.C cacodylate pH 6.5/ammonium sulfate/PEG 8K 4 C; DSB.D cacodylate pH 6.5/Ca acetate/PEG 8K 4 C, soaked in Mg acetate; conditions: protein: recombinant; tags: GST tag removed by TEV; two duplexes: ACTG:CAGTGC (3' overhang 2 nt) and CGGCAGC:GCCG (3' overhang 3 nt); 2-nt microhomology, 1-nt gap
T1 sequence: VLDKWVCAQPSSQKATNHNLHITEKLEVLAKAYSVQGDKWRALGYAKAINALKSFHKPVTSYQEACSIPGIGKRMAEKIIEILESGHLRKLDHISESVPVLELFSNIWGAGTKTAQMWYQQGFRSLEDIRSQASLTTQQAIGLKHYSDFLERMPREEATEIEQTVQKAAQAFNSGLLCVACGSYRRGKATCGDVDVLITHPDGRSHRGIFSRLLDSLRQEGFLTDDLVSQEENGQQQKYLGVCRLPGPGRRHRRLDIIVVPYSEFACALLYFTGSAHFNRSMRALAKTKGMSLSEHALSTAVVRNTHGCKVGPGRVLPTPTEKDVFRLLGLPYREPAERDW

[2] = biological target: T1, DNA polymerase lambda catalytic domain …; experiment: X-ray crystallography, 2 A; dUMPNPP, Mg2+; Crystals only: DNA with protein on ice or RT, then 0.91 mM dUMPNPP; SSB cacodylate pH 6.5/KCl/Mg acetate/PEG 8000 RT; DSB.A tripotassium citrate/PEG 3350 4 C; DSB.B Na sulfate/PEG 3350 RT; DSB.C cacodylate pH 6.5/ammonium sulfate/PEG 8K 4 C; DSB.D cacodylate pH 6.5/Ca acetate/PEG 8K 4 C, soaked in Mg acetate; conditions: protein: recombinant; tags: GST tag removed by TEV; two duplexes: TACTG:CAGTGC (G:T mismatch at -2, 3' overhang 1 nt) and CGGCAG:GCCG (3' overhang 2 nt); 1-nt microhomology
[3] = biological target: T1, DNA polymerase lambda catalytic domain …; experiment: X-ray crystallography, 1.65 A; dUMPNPP, Ca2+/Mg2+ (metal A), Mg2+ (metal B); pre-catalytic; Crystals only: DNA with protein on ice or RT, then 0.91 mM dUMPNPP; SSB cacodylate pH 6.5/KCl/Mg acetate/PEG 8000 RT; DSB.A tripotassium citrate/PEG 3350 4 C; DSB.B Na sulfate/PEG 3350 RT; DSB.C cacodylate pH 6.5/ammonium sulfate/PEG 8K 4 C; DSB.D cacodylate pH 6.5/Ca acetate/PEG 8K 4 C, soaked in Mg acetate; conditions: protein: recombinant; tags: GST tag removed by TEV; two duplexes: blunt GCACTG:CAGTGC and CGGCA:GCCG (3' overhang 1 nt); no microhomology
[4] = biological target: T1, DNA polymerase lambda catalytic domain …; experiment: X-ray crystallography, 1.57 A; dUMPNPP, Mg2+; Crystals only: DNA with protein on ice or RT, then 0.91 mM dUMPNPP; SSB cacodylate pH 6.5/KCl/Mg acetate/PEG 8000 RT; DSB.A tripotassium citrate/PEG 3350 4 C; DSB.B Na sulfate/PEG 3350 RT; DSB.C cacodylate pH 6.5/ammonium sulfate/PEG 8K 4 C; DSB.D cacodylate pH 6.5/Ca acetate/PEG 8K 4 C, soaked in Mg acetate; conditions: protein: recombinant; tags: GST tag removed by TEV; 1-nt gap; template with upstream primer and downstream primer
[5] = biological target: T2, DNA polymerase lambda catalytic domain with brooch motif (DSB.B crystals) (Homo sapiens, UniProt Q9UGP5 233-575); experiment: X-ray crystallography, 2.25 A; dUMPNPP, Mg2+ (metal B), Na+ in HhH2 site; Crystals only: DNA with protein on ice or RT, then 0.91 mM dUMPNPP; SSB cacodylate pH 6.5/KCl/Mg acetate/PEG 8000 RT; DSB.A tripotassium citrate/PEG 3350 4 C; DSB.B Na sulfate/PEG 3350 RT; DSB.C cacodylate pH 6.5/ammonium sulfate/PEG 8K 4 C; DSB.D cacodylate pH 6.5/Ca acetate/PEG 8K 4 C, soaked in Mg acetate; conditions: protein: recombinant; tags: GST tag removed by TEV; single-stranded upstream primer plus duplex CGGCAGC:GCCG (3' overhang 3 nt); 2-nt microhomology; primer 5' end mispairs with same primer of neighbouring complex
T2 sequence: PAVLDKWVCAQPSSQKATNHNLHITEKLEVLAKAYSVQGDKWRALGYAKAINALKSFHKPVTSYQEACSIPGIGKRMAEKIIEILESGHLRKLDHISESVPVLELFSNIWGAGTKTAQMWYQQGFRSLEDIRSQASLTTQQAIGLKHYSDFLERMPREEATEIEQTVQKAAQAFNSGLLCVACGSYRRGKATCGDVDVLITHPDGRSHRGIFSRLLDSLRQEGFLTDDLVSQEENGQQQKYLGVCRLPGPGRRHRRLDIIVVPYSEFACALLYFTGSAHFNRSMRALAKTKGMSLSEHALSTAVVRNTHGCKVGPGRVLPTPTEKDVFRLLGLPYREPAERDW

B1: DSB.A complementary (dsDNA)
DNA 1: ACTG
DNA 2: CAGTGC
DNA 3: CGGCAGC
DNA 4: GCCG
modifications: 5'-phosphate on GCCG
B1: binds [1].

B2: DSB.C mismatched (dsDNA)
DNA 1: TACTG
DNA 2: CAGTGC
DNA 3: CGGCAG
DNA 4: GCCG
modifications: 5'-phosphate on GCCG
B2: binds [2].

B3: DSB.D blunt-ended (dsDNA)
DNA 1: GCACTG
DNA 2: CAGTGC
DNA 3: CGGCA
DNA 4: GCCG
modifications: 5'-phosphate on GCCG
B3: binds [3].

B4: 1nt-gapped SSB (dsDNA)
DNA 1: CGGCAGTACTG
DNA 2: CAGTAC
DNA 3: GCCG
modifications: 5'-phosphate on GCCG
B4: binds [4].

B5: DSB.B without upstream template (mixed)
DNA: CAGTGC
? 1: CGGCAGC
? 2: GCCG
modifications: 5'-phosphate on GCCG
B5: binds [5].

Reference: article PMC9249759, “Analysis of diverse double-strand break synapsis with Polλ reveals basis for unique substrate specificity in nonhomologous end-joining”
